In publication PMC11782662, “Phase separation of a microtubule plus-end tracking protein into a fluid fractal network” (Nature Communications, 2025):

B1: N-terminally His-tagged, full-length Bik1 (natural protein, S. cerevisiae, UniProt P11709 1-440, looked up)
chain: MDRYQRKIGCFIQIPNLGRGQLKYVGPVDTKAGMFAGVDLLANIGKNDGSFMGKKYFQTEYPQSGLFIQLQKVASLIEKASISQTSRRTTMEPLSIPKNRSIVRLTNQFSPMDDPKSPTPMRSFRITSRHSGNQQSMDQEASDHHQQQEFGYDNREDRMEVDSILSSDRKANHNTTSDWKPDNGHMNDLNSSEVTIELREAQLTIEKLQRKQLHYKRLLDDQRMVLEEVQPTFDRYEATIQEREKEIDHLKQQLELERRQQAKQKQFFDAENEQLLAVVSQLHEEIKENEERNLSHNQPTGANEDVELLKKQLEQLRNIEDQFELHKTKWAKEREQLKMHNDSLSKEYQNLSKELFLTKPQDSSSEEVASLTKKLEEANEKIKQLEQAQAQTAVESLPIFDPPAPVDTTAGRQQWCEHCDTMGHNTAECPHHNPDNQQFF
notes: Bik1, S. cerevisiae, UniProt P11709, full length (domains described over residues 1-440); Vector PSPCm2: N-terminal 6xHis-tag followed by a PreScission cleavage site; also called Bik1 FL; FL; source: E. coli BL21-CodonPlus (DE3)-RIPL, purified (IMAC, SEC); not shown: His6, N-terminal, kept
B2: Bik1 ΔQQFF (domain or fragment, S. cerevisiae, UniProt P11709 1-436, looked up)
chain: MDRYQRKIGCFIQIPNLGRGQLKYVGPVDTKAGMFAGVDLLANIGKNDGSFMGKKYFQTEYPQSGLFIQLQKVASLIEKASISQTSRRTTMEPLSIPKNRSIVRLTNQFSPMDDPKSPTPMRSFRITSRHSGNQQSMDQEASDHHQQQEFGYDNREDRMEVDSILSSDRKANHNTTSDWKPDNGHMNDLNSSEVTIELREAQLTIEKLQRKQLHYKRLLDDQRMVLEEVQPTFDRYEATIQEREKEIDHLKQQLELERRQQAKQKQFFDAENEQLLAVVSQLHEEIKENEERNLSHNQPTGANEDVELLKKQLEQLRNIEDQFELHKTKWAKEREQLKMHNDSLSKEYQNLSKELFLTKPQDSSSEEVASLTKKLEEANEKIKQLEQAQAQTAVESLPIFDPPAPVDTTAGRQQWCEHCDTMGHNTAECPHHNPDN
notes: Bik1, S. cerevisiae, UniProt P11709, lacking the C-terminal EEY/F-like motif (peptide Gln-Gln-Phe-Phe); N-terminal 6xHis-tag followed by a PreScission site, tag retained; source: E. coli BL21-CodonPlus (DE3)-RIPL, purified (IMAC, SEC); not shown: His6, N-terminal, kept

Molecular target: the molecule itself
Assay: SEC-SAXS; Shodex KW-404 column in line with SAXS; 20 mM Tris-HCl, pH 7.5, 500 mM NaCl, 2% glycerol, 1 mM DTT; injected at 4, 6 and 8 mg/ml; ab initio envelopes (DAMMIF)

Protein	stoichiometry N	binding result
B1	2	
B2		binds
